In this data set the target is T1, Rev (HIV-1) (UniProt P04618).
T1 sequence: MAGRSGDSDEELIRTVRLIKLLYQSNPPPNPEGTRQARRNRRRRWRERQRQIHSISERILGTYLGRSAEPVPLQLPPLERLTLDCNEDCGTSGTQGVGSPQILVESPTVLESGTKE
In words: EMSA. The following applies: native 4% PAGE; constant 32P-RRE RNA with 20, 40 or 80 ng Rev; buffer, salt, pH and temperature not given. On the technique in general: A gel shift assay detects complexes by their altered migration in electrophoresis.

Regarding “GAGAAGAGUGGUGCAGAGAGAAAAAAGAGCAGUGGGAACAAUAGGAGCUAUGUUCCUUGGGUCCUUGGGAGCAGCAGGAAGCACUAUGGGCGCAGCGUCAAUAACGCUGACGGUACAGGCCAGACAAUUACUGUCUGGUAUAGUGCAACAGCAAAACAACUUGCUGAGGGCUAUUGAGGCGCAACAACAUCUGUUGCAACUCACAGUCUGGGGCAUCAAGCAGCUCCAGGCGAGAGUCCUGGCUGUGGAAAGAUACCUAAGGGAUCAACAGCUCCUAGGGAUUUGGGGUUGCUCUGGAAGACUCAUUUGCACCACUGCUGUGCCUUGGAAUG [RREWT (40Q-45L)]”, the binding signal (% RNA shifted) is 96.

(Values after article PMC4149556.)
